The values below come from paper PMC3530171 (Cell, 2012).

This test addresses recombinant His-Mdm2 (UniProt P23804 1-489). The test can be described thus: pull-down.

Sequence of recombinant His-Mdm2 (P23804 whole entry): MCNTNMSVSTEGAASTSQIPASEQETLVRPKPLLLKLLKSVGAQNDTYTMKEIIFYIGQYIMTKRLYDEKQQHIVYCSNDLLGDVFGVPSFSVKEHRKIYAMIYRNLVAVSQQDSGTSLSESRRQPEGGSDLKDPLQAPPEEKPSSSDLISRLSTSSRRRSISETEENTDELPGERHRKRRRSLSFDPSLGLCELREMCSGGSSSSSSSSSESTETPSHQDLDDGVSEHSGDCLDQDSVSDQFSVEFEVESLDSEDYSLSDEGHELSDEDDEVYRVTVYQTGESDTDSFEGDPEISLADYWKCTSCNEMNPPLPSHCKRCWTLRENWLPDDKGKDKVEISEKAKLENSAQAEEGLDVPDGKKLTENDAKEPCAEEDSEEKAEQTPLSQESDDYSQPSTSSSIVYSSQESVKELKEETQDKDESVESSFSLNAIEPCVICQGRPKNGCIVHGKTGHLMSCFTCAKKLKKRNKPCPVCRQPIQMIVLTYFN

B1: recombinant GST-EF1α (natural protein)
chain: GKEKTHINIVVIGHVDSGKSTTTGHLIYKCGGIDKRTIEKFEKEAAEMGKGSFKYAWVLDKLKAERERGITIDISLWKFETSKYYVTIIDAPGHRDFIKNMITGTSQADCAVLIVAAGVGEFEAGISKNGQTREHALLAYTLGVKQLIVGVNKMDSTEPPYSQKRYEEIVKEVSTYIKKIGYNPDTVAFVPISGWNGDNMLEPSANMPWFKGWKVTRKDGNASGTTLLEALDCILPPTRPTDKPLRLPLQDVYKIGGIGTVPVGRVETGVLKPGMVVTFAPVNVTTEVKSVEMHHEALSEALPGDNVGFNVKNVSVKDVRRGNVAGDSKNDPPMEAAGFTAQVIILNHPGQISAGYAPVLDCHTAHIACKFAELKEKIDRRSGKKLEDGPKFLKSGDAAIVDMVPGKPMCVESFSDYPPLGRFAVRDMRQTVAVGVIKAVDKKAAGAGKVTKSAQKAQKAK
As for B1, the “stoichiometry N” value is approximately 1.
